# Measurements: patent US20210324104A1 (INSERM INSTITUT NATIONAL DE LA SANT ET DE LA RECHERCHE M …, published 2021)
# T1: nectin-2 (UniProt Q92692 32-538, limits assumed)
# T1 construct: whole, on cells
# T1 sequence (looked up): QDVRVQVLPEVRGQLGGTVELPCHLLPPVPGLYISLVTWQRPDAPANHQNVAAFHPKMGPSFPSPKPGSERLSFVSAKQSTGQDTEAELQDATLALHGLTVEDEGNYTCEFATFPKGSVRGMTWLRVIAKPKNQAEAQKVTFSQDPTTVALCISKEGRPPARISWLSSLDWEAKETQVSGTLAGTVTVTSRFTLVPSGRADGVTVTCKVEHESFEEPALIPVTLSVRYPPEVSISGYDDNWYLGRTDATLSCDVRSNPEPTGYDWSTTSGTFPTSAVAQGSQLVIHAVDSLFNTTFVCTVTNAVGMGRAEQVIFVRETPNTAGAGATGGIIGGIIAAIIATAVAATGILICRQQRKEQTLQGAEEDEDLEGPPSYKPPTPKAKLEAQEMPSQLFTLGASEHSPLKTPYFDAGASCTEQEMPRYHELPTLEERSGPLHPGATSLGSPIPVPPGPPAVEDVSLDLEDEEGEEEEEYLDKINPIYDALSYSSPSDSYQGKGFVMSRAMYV
# T2: nectin-1 (UniProt Q15223 31-517, limits assumed)
# T2 construct: whole, on cells
# T2 sequence (looked up): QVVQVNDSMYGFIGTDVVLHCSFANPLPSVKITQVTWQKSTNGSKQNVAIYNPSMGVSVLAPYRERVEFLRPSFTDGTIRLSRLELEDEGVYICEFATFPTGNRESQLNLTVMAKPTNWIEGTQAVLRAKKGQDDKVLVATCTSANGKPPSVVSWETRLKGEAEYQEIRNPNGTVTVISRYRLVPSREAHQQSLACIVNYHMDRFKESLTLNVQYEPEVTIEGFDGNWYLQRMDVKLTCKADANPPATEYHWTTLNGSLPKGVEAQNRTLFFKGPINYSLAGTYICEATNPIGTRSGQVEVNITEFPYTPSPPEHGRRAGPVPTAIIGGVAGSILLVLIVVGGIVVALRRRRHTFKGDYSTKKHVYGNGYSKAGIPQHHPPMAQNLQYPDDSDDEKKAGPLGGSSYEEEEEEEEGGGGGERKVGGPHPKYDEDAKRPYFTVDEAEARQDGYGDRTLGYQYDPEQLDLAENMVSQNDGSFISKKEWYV
# B1: 14A5.2 monoclonal antibody (antibody, V domains shown)
# VH: EVLLQQSGPELVKPGASVKIPCKASGYTFTDYTMDWVKQSHGKSLEWIGDINPNNDVTMYNEKFKGRATLTVDKSSSTAYMEVRSLTSEDTAVYYCVRGRGFAYWGQGTLVTVSA
# VL: DIVLTQSPASLIVSLGQRATISCRASQSVSTSSNSYMHWYQQKPGQPPKLLIRFASNLESGVPARFSGSGSGTYFTLNIHPVEEEDSATYYCQHSWEIPYTFGGGTKLEIK
# notes: Parental non-chimeric monoclonal antibody; also called 14A5.2 mab; 14A5.2-HRP
# How the values were obtained:
# [1] = target: T1, nectin-2; assay: western blot of lysates of MDA-MB-231 cells transfected with null vector (wt cells express nectin-1, -2, -3); similar results by FACS
# [2] = target: T2, nectin-1; assay: as above
binder,measurement,setting,value
B1,binding result,[1],no binding (tested: 1 µg/ml)
same,binding result,[2],no binding (tested: 1 µg/ml)
